In publication PMC3010111:

Legend:
Assay in all cases: purified protein
purified protein [1] = substrate: O=C(O)[C@H](O)[C@H](O)COP(=O)(O)O; settings: 2 mM NAD+, 100 mM Tris–HCl pH 7.5, 25°C, 2 μM PdxA
purified protein [2] = substrate: C[C@@H](O)[C@H](N)C(=O)O; settings: 0.1 M Tris–HCl pH 8.0, 25°C, 1.25 μM LtaE
purified protein [3] = substrate: C[C@H](O)[C@H](N)C(=O)O; settings: 0.1 M Tris–HCl pH 8.0, 25°C, 62.5 nM LtaE
purified protein [4] = substrate: N[C@H](C(=O)O)[C@H](O)CO
purified protein [5] = substrate: N[C@@H](CCO)C(=O)O; settings: 25°C, 37 nM ThrB
purified protein [6] = substrate: O=C(O)C(=O)COP(=O)(O)O; settings: 50 mM Tris–HCl pH 7.4, 37°C, MalE–YeaB 5.7 μM
[7] = 0.1 M Tris–HCl pH 8.0, 25°C, 1 μM LtaE

B1: PdxA (4-hydroxy-L-threonine dehydrogenase) (Escherichia coli K-12) (protein)
chain: MVKTQRVVITPGEPAGIGPDLVVQLAQREWPVELVVCADATLLTNRAAMLGLPLTLRPYSPNSPAQPQTAGTLTLLPVALRAPVTAGQLAVENGHYVVETLARACDGCLNGEFAALITGPVHKGVINDAGIPFTGHTEFFEERSQAKKVVMMLATEELRVALATTHLPLRDIADAITPALLHEVIAILHHDLRTKFGIAEPRILVCGLNPHAGEGGHMGTEEIDTIIPVLNELRAQGMKLNGPLPADTLFQPKYLDNADAVLAMYHDQGLPVLKYQGFGRGVNITLGLPFIRTSVDHGTALELAGRGKADVGSFITALNLAIKMIVNTQ
Question: Which Km (purified protein [1]) does the source give for B1 here?
Answer: 150 ± 13 µM

Question: And the kcat (purified protein [1])?
Answer: 0.020 ± 0.002 s⁻¹

B2: LtaE (low-specificity threonine aldolase) (Escherichia coli K-12) (protein)
chain: MIDLRSDTVTRPSRAMLEAMMAAPVGDDVYGDDPTVNALQDYAAELSGKEAAIFLPTGTQANLVALLSHCERGEEYIVGQAAHNYLFEAGGAAVLGSIQPQPIDAAADGTLPLDKVAMKIKPDDIHFARTKLLSLENTHNGKVLPREYLKEAWEFTRERNLALHVDGARIFNAVVAYGCELKEITQYCDSFTICLSKGLGTPVGSLLVGNRDYIKRAIRWRKMTGGGMRQSGILAAAGIYALKNNVARLQEDHDNAAWMAEQLREAGADVMRQDTNMLFVRVGEENAAALGEYMKARNVLINASPIVRLVTHLDVSREQLAEVAAHWRAFLAR
Question: Which Km (purified protein [2]) does the source give for B2 here?
Answer: 4000 ± 200 µM

Question: What about the kcat (purified protein [2]) of the same protein?
Answer: 1.1 ± 0.1 s⁻¹

Question: What about the kcat/Km (purified protein [2]) of the same protein?
Answer: 280 ± 20 M⁻¹ s⁻¹

Question: What about the Km (purified protein [3]) of the same protein?
Answer: 52 ± 4 µM

Question: And the kcat (purified protein [3])?
Answer: 3.2 ± 0.2 s⁻¹

Question: And the kcat/Km (purified protein [3])?
Answer: 62000 ± 5000 M⁻¹ s⁻¹

Question: And the Km (purified protein [4]; [7])?
Answer: 27 ± 2 µM

Question: What about the kcat (purified protein [4]; [7]) of the same protein?
Answer: 1.44 ± 0.03 s⁻¹

Question: And the kcat/Km (purified protein [4]; [7])?
Answer: 53000 ± 4000 M⁻¹ s⁻¹

B3: ThrB (homoserine kinase) (Escherichia coli K-12) (protein)
chain: MVKVYAPASSANMSVGFDVLGAAVTPVDGALLGDVVTVEAAETFSLNNLGRFADKLPSEPRENIVYQCWERFCQELGKQIPVAMTLEKNMPIGSGLGSSACSVVAALMAMNEHCGKPLNDTRLLALMGELEGRISGSIHYDNVAPCFLGGMQLMIEENDIISQQVPGFDEWLWVLAYPGIKVSTAEARAILPAQYRRQDCIAHGRHLAGFIHACYSRQPELAAKLMKDVIAEPYRERLLPGFRQARQAVAEIGAVASGISGSGPTLFALCDKPETAQRVADWLGKNYLQNQEGFVHICRLDTAGARVLEN
Question: With B3 as the protein, how does the Km (purified protein [5]) read?
Answer: 120 ± 20 µM

Question: And the kcat (purified protein [5])?
Answer: 46 ± 4 s⁻¹

Question: What about the kcat/Km (purified protein [5]) of the same protein?
Answer: 380000 ± 70000 M⁻¹ s⁻¹

Question: What about the Km (purified protein [4]; 25°C, 0.18 μM ThrB) of the same protein?
Answer: 2000 ± 100 µM

Question: And the kcat (purified protein [4]; 25°C, 0.18 μM ThrB)?
Answer: 9.7 ± 0.8 s⁻¹

Question: And the kcat/Km (purified protein [4]; 25°C, 0.18 μM ThrB)?
Answer: 4800 ± 600 M⁻¹ s⁻¹

B4: MalE–YeaB (YeaB, also known as NudL) (Escherichia coli K-12) (protein)
chain: MEYRSLTLDDFLSRFQLLRPQINRETLNHRQAAVLIPIVRRPQPGLLLTQRSIHLRKHAGQVAFPGGAVDDTDASAIAAALREAEEEVAIPPSAVEVIGVLPPVDSVTGYQVTPVVGIIPPDLPYRASEDEVSAVFEMPLAQALHLGRYHPLDIYRRGDSHRVWLSWYEQYFVWGMTAGIIRELALQIGVKP
Question: B4 was tested. Which kcat (purified protein [6]) did it give?
Answer: 5.7e-05 ± 7e-06 s⁻¹

Question: And the kcat/Km (purified protein [6])?
Answer: > 0.028 M⁻¹ s⁻¹
